# Target: HLA-A*02:01 (Homo sapiens, UniProt P04439, D140Y/D185E/D98H/E176V/E277Q/G131W/G231S/I119V/I121R/I166T/I218V/L300P/L318F/N151K/N90K/P208A/P217A/Q86G/Q94H/R138H/R169H/T345S)
# Test: MHC binding assay (UV-ligand exchange, β2m ELISA, peptide exchange yield)
# Details: MHC class I binding score; binding to HLA-A*02:01 ranged by peptide exchange yield (UV-ligand exchange, β2m ELISA)
# Method in brief: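 Peptide–HLA-A*02:01 complexes were formed by UV-mediated exchange of a UV-cleavable ligand for the test peptide. Exchange yield was measured by capturing complexes on streptavidin, detecting with HRP anti-β2m antibody (1 h, 37°C) and reading TMB absorbance at 450 nm.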
row,Peptide exchange,Substance
1,“+++” (≧50 = +++),304 (MTLGQIYYL; listed as Homo sapiens) [compound 304]
2,“++++” (≧75% = ++++),305 (SIANFSEFYV; listed as Homo sapiens) [compound 305]
3,“+++” (≧50 = +++),306 (ALVNVQIPL; listed as Homo sapiens) [compound 306]
4,“+++” (≧50 = +++),307 (ALPVSLPQI; listed as Homo sapiens) [compound 307]
5,“+++” (≧50 = +++),308 (SQYSGQLHEV; listed as Homo sapiens) [compound 308]
6,“+++” (≧50 = +++),309 (GLFDGVPTTA; listed as Homo sapiens) [compound 309]
7,“++++” (≧75% = ++++),310 (FLVDTPLARA; listed as Homo sapiens) [compound 310]
8,“+++” (≧50 = +++),311 (RLYTGMHTV; listed as Homo sapiens) [compound 311]
9,“+++” (≧50 = +++),312 (IISDLTIAL; listed as Homo sapiens) [compound 312]
10,“+++” (≧50 = +++),313 (VLFDDELLMV; listed as Homo sapiens) [compound 313]
11,“+++” (≧50 = +++),314 (ALIAEGIALV; listed as Homo sapiens) [compound 314]
12,“+++” (≧50 = +++),315 (YLQDVVEQA; listed as Homo sapiens) [compound 315]
13,“+++” (≧50 = +++),316 (ILLERLWYV; listed as Homo sapiens) [compound 316]
14,“+++” (≧50 = +++),317 (SLAALVVHV; listed as Homo sapiens) [compound 317]
15,“++” (≧20% = ++),318 (GLINTGVLSV; listed as Homo sapiens) [compound 318]
16,“++++” (≧75% = ++++),320 (KMFEFVEPLL; listed as Homo sapiens) [compound 320]
17,“++++” (≧75% = ++++),321 (GLFEDVTQPGILL; listed as Homo sapiens) [compound 321]
18,“+++” (≧50 = +++),322 (TLMTSLPAL; listed as Homo sapiens) [compound 322]
19,“+++” (≧50 = +++),324 (FLYDEIEAEV; listed as Homo sapiens) [compound 324]
20,“+++” (≧50 = +++),325 (FIMPATVADATAV; listed as Homo sapiens) [compound 325]
21,“+++” (≧50 = +++),326 (FLPEALDFV; listed as Homo sapiens) [compound 326]
22,“+++” (≧50 = +++),327 (GLAPFTEGISFV; listed as Homo sapiens) [compound 327]
23,“+++” (≧50 = +++),328 (ALNDQVFEI; listed as Homo sapiens) [compound 328]
24,“++++” (≧75% = ++++),329 (FLVTLNNVEV; listed as Homo sapiens) [compound 329]
25,“+++” (≧50 = +++),330 (QLALKVEGV; listed as Homo sapiens) [compound 330]
26,“+++” (≧50 = +++),331 (KVDTVWVNV; listed as Homo sapiens) [compound 331]

row,Peptide exchange,Substance
1,“+++” (≧50 = +++),332 (YLISELEAA; listed as Homo sapiens) [compound 332]
2,“++” (≧20% = ++),333 (FLPDANSSV; listed as Homo sapiens) [compound 333]
3,“+++” (≧50 = +++),334 (TLTKVLVAL; listed as Homo sapiens) [compound 334]
4,“+++” (≧50 = +++),335 (YSLSSVVTV; listed as Homo sapiens) [compound 335]
5,“+++” (≧50 = +++),336 (ILLTAIVQV; listed as Homo sapiens) [compound 336]
6,“++++” (≧75% = ++++),337 (HLLSELEAAPYL; listed as Homo sapiens) [compound 337]
7,“++++” (≧75% = ++++),339 (GLWEIENNPTVKA; listed as Homo sapiens) [compound 339]
8,“++++” (≧75% = ++++),340 (ALLSMTFPL; listed as Homo sapiens) [compound 340]
9,“+++” (≧50 = +++),341 (SQIALNEKLVNL; listed as Homo sapiens) [compound 341]
10,“+++” (≧50 = +++),342 (HIYDKVMTV; listed as Homo sapiens) [compound 342]
11,“+++” (≧50 = +++),343 (SLLEVNEESTV; listed as Homo sapiens) [compound 343]
12,“+++” (≧50 = +++),344 (YLQDQHLLLTV; listed as Homo sapiens) [compound 344]
13,“+++” (≧50 = +++),345 (VIWKALIHL; listed as Homo sapiens) [compound 345]
14,“+++” (≧50 = +++),346 (LLDSKVPSV; listed as Homo sapiens) [compound 346]
15,“++++” (≧75% = ++++),347 (SLFKHDPAAWEA; listed as Homo sapiens) [compound 347]
16,“++++” (≧75% = ++++),348 (ILLDVKTRL; listed as Homo sapiens) [compound 348]
17,“++++” (≧75% = ++++),349 (SLTEYLQNV; listed as Homo sapiens) [compound 349]
18,“+++” (≧50 = +++),350 (ALLDVTHSELTV; listed as Homo sapiens) [compound 350]
19,“+++” (≧50 = +++),351 (SLIPNLRNV; listed as Homo sapiens) [compound 351]
20,“+++” (≧50 = +++),352 (SLLELLHIYV; listed as Homo sapiens) [compound 352]
21,“++” (≧20% = ++),353 (YLFEMDSSL; listed as Homo sapiens) [compound 353]
22,“++” (≧20% = ++),354 (LILEGVDTV; listed as Homo sapiens) [compound 354]
23,“++” (≧20% = ++),355 (SIQQSIERLLV; listed as Homo sapiens) [compound 355]
24,“+++” (≧50 = +++),356 (KLLGKLPEL; listed as Homo sapiens) [compound 356]
25,“+++” (≧50 = +++),357 (SMHDLVLQV; listed as Homo sapiens) [compound 357]
26,“++++” (≧75% = ++++),358 (ALDEYTSEL; listed as Homo sapiens) [compound 358]

row,Peptide exchange,Substance
1,“+++” (≧50 = +++),359 (YLLPESVDL; listed as Homo sapiens) [compound 359]
2,“+++” (≧50 = +++),361 (ALYELEGTTV; listed as Homo sapiens) [compound 361]
3,“+++” (≧50 = +++),362 (TLYGLSVLL; listed as Homo sapiens) [compound 362]
4,“++” (≧20% = ++),363 (KVLDVSDLESV; listed as Homo sapiens) [compound 363]
5,“+++” (≧50 = +++),364 (LLQNEQFEL; listed as Homo sapiens) [compound 364]
6,“+++” (≧50 = +++),365 (YVIDQGETDVYV; listed as Homo sapiens) [compound 365]
7,“+++” (≧50 = +++),366 (RLLDMGETDLML; listed as Homo sapiens) [compound 366]
8,“+++” (≧50 = +++),367 (SLQNHNHQL; listed as Homo sapiens) [compound 367]
9,“+++” (≧50 = +++),369 (GLFPEHLIDV; listed as Homo sapiens) [compound 369]
10,“+++” (≧50 = +++),370 (SLLQDLVSV; listed as Homo sapiens) [compound 370]
11,“++++” (≧75% = ++++),371 (FLQAHLHTA; listed as Homo sapiens) [compound 371]
12,“++” (≧20% = ++),372 (TMLLNIPLV; listed as Homo sapiens) [compound 372]
13,“++” (≧20% = ++),373 (SLLEDKGLAEV; listed as Homo sapiens) [compound 373]
14,“++” (≧20% = ++),374 (FLLQQHLISA; listed as Homo sapiens) [compound 374]
15,“++” (≧20% = ++),375 (SLTETIEGV; listed as Homo sapiens) [compound 375]
16,“++” (≧20% = ++),376 (AMFESSQNVLL; listed as Homo sapiens) [compound 376]
17,“++” (≧20% = ++),377 (FLLDSSASV; listed as Homo sapiens) [compound 377]
18,“+++” (≧50 = +++),378 (ALGYFVPYV; listed as Homo sapiens) [compound 378]
19,“++” (≧20% = ++),379 (IMEGTLTRV; listed as Homo sapiens) [compound 379]
20,“++” (≧20% = ++),380 (TLIEDEIATI; listed as Homo sapiens) [compound 380]
21,“++” (≧20% = ++),381 (FIDEAYVEV; listed as Homo sapiens) [compound 381]
22,“++” (≧20% = ++),382 (ALQNYIKEA; listed as Homo sapiens) [compound 382]
23,“+++” (≧50 = +++),383 (ALLELENSVTL; listed as Homo sapiens) [compound 383]
24,“++” (≧20% = ++),385 (SLLEQGLVEA; listed as Homo sapiens) [compound 385]
25,“+++” (≧50 = +++),386 (ILFRYPLTI; listed as Homo sapiens) [compound 386]

# Reference: patent publication US20170002055A1, “Novel peptides and combination of peptides for use in immunotherapy against ovarian cancer and other cancers” (immatics biotechnologies GmbH, priority 2015, published 2017)
